Assay results from patent US20250375505A1, “COMPOSITIONS AND METHODS FOR MODIFYING BILE ACIDS TO REGULATE LIPID AND STEROID METABOLISM” (The Regents of the University of California, priority 2021, published 2025).

B1: BSH (group I): bile salt hydrolase group I from Turicibacter sanguinis MOL361, SEQ ID NO: 1 (protein, listed as Turicibacter sanguinis)
chain: MCTGLSLVTKDNKHLFGRNLDVPATYGQAVHIVPRNYDWFNIVSDETYTSKYACIGMGIVVDRLPLLFDAVNEKGLAGAGLNFTHFAKFNEKAVDGKTNISGSTFLYWALSNFSNLDELKEALKQLIITNIPVKEGLPVAGLHWMFTDLSGKSIVIEYMEDGMHVYDNPVGALTNDPTFPWHLTNLCQYVTLDTKTPAPKQFGEYVAKPFGHGLNMCGIPGDASPAARFVRTVYFRDTVVEADDEVSGVSAFFQVLTGVTVIKGSEIDPNGDMNYTVYKSCMCQESGTYYYTDYKNRRISAVCLSKADLDGKEIISFEYQGKQDILFQN
B2: 7α-HSDH homolog from MOL361: 7-alpha hydroxysteroid dehydrogenase homolog of MOL361, locus tag HLK68_RS02750, SEQ ID NO: 9, expressed in E. coli C41-pLys (protein, listed as Turicibacter sanguinis)
chain: MRKLENAIALVTSSTRGIGLACAKKLASEGAIVYMGVRRLEVTQEICDEVAKEGLKMKPVFFDAYNIDSYETMVEEVIREQGKIDILVNNFGTGRPEVDLDLVSGDEKAFFDILEANIGSVYRISKLVIPHMIKQGKGSIVNISSIGGTVPDISRIGYGVSKAGVNNITQQIAMQYARYNIRCNAVLPGLTATDAALDNMPEQFIKSFLSHVPLNRMGTPEDMANAVLFFASDDSSYVTGDIMEVSGGYHLGTPQYADFVGRKVVEEK
B3: BSH (group III): bile salt hydrolase group III from Turicibacter sanguinis 1E2, SEQ ID NO: 3 (protein, listed as Turicibacter sanguinis)
chain: MCTGLCLSTKDGKHLFGRNLDVPASYNQAVQIVPRNFKWLNVATQETITSKYACIAMGIVIDNHPLLFDGVNEKGLAGGGLNFTHFAKFSSTAVKDKISLSASDFVYWVLSTFSSLSELKETLPSVILTSIPFKPDLPVAGLHWIFTDKTGESIVIEYMEDGMHIHDNPVGVLTNDPTFDWQLTNLSQYVTLSCKTPQPEEMGNLLVKPFGHGLGMCGIPGDGSPAARFVRTVFFRDAVVGADDEISGVTAFFNVLSEVTVMKGSEIDPDGSMNFTVYKSAMCQESQTYYYTDYYNRRINAVKLTPDTMNADHITTFPYLGKQDICYQN
B4: BSH (group IV): bile salt hydrolase group IV from Turicibacter sanguinis MOL361, SEQ ID NO: 4 (protein, listed as Turicibacter sanguinis)
chain: MCTALSLTAKDGSHLFGRNMDIEYSFNQSILLTPRRFDYKNRATGEMNQTKYAIIGMGTIIDEHPCYAELFNEKGLAAAGLNFPNYAHWDEKAIEGKTNIPPYDLVLWVTSNFETVKEVKEALKDVVLVDVPVNEQTPIAPLHWMICDKTGESIVVEKTVNGLSVMDNKVGVLTNAPTFDWHLTNLTQYMGLTSTQPKDITLGEQELHPLGQGLGAFSLPGDYSSPSRFVKAAFLRNNIDYANVNYSGISEFFHILNGVAMVRGSVVTPQHLNDITLYTSCMDQERGIYYYNTYTNHTISSINMHNEDLDAKEIKSFKFNDEFAVNLQN
B5: BSH (group II): bile salt hydrolase group II from Turicibacter sanguinis H121, SEQ ID NO: 2 (protein, listed as Turicibacter sanguinis)
chain: MCTGLSLTTKDGKHFFGRNLDVPASYGQSVHIIPRNFNWLNVVNGETLASKYACIGMGIVVDNHPLLFDAVNEKGLAGGGLNFTHFAKFNENAIDGKINISASDFVYWALSNFADLNELRQALENLVLTNIPFEHELPVAGLHWMFTDLSGRSIVIENMADGMHIHENPVGVLTNDPTFDWHLTNLRQYVTLEKATPAPKQMGDLLLHPYGHGLGMCGIPGDASPAARFVRTVFFRDSIVEANDEISGVTAFLNVLTGVTVIKGSEVDPDGSMNYTVYKSAMCQESGTYYYTDYYNRRINAVKLSNANLDSKEITSFPYQGEQDILFQN

What was measured:
[1] = test system: tauro- (TCA, TCDCA) or glyco- (GCA, GCDCA) bile acids; assay: Deconjugation by E. coli C41-pLys expressing putative Turicibacter bsh genes (LC-MS); format: cell-based
Experimental: Control is E. coli with same expression vector but expressing non-bile-modifying gene. d, same as c, but with GCA and GCDCA instead of tauro-bile acids. e, Quantification of percent remaining (compared to media controls) of conjugated bile acid (TCA, TCDCA, GCA, GCDCA) after 24 h growth with E. coli expressing the noted Turicibacter bsh gene. n=3 independent cultures, *p<0.05, **p<0.005, ***p<0.0005 using one sample t-test comparison with 100% remaining. BSH nomenclature indicates homolog group (e.g. III) and isolate of origin (e.g. MOL361).
Conjugation increases bile acid solubility and emulsification ability^45, while deconjugation reverses these effects, leading to decreased dietary lipid absorption. To identify Turicibacter bile salt hydrolase (bsh) genes responsible for the strain-specific differences in bile deconjugation, the study first searched our assembled genomes for annotations of “choloylglycine hydrolase,” the broad category that includes these genes. […] Isolates within the same phylogenetic and phenotypic subgroups largely shared similar sequences (FIG. 11a, b). To assay the function of the strain-specific putative bsh genes, the study cloned and individually expressed one representative sequence from each of the eight putative choloylglycine hydrolase groups in E. coli C41-pLys and measured the ability of these engineered bacteria to perform the deconjugations the study observed in the native Turicibacter. The study cultured the individual E. coli strains to stationary phase in the presence of two tauro-(TCA, TCDCA) or glyco-(GCA, GCDCA) bile acids, then measured their ability to deconjugate these bile acid pools. […] Collectively, these findings reveal that Turicibacter strains contain a range of bile salt hydrolases with deconjugation preferences for different bile acids.
For bile species quantification, an internal spike-in standard of 100 mM chenodeoxycholic acid-D4 (CDCA-D4, Sigma) was added to initial culture supernatants as a normalization reference. Area under the curve from reconstructed ion chromatograms was used to quantify the abundances of each species.

[2] = test system: CA, CDCA, and DCA; settings: expressed in E. coli C41-pLys
Experimental: Escherichia coli C41-pLys (Lucigen) was used for characterizing putative bile modification genes, which were expressed off the pET21+plasmid. E. coli was grown acrobically shaking at 37° C. C in Luria Broth (LB, 1% NaCl, 1% tryptone, 0.5% yeast extract) supplemented with 100 μg mL^−1 ampicillin. Expression of genes was induced by addition of 100 μM IPTG.
In vitro characterization of bile transformations by engineered E. coli or B. thetaiotaomicron strains were performed by growing cells in respective media conditions described above supplemented with 0.5 mM (total combined concentration) of the noted bile species. Cells were grown to stationary phase (shaking at 37° C.), then frozen at −80° C. until further processing. Cells were then thawed, pelleted (5 minutes at 16,000×g), and the supernatant was removed to a new microcentrifuge tube. Three volumes of methanol was added, then the mixture was vigorously mixed for 30-60 seconds and incubated (room temperature, 15 minutes). Mixtures were centrifuged (5 minutes, 16,000×g), the supernatant removed to a clean microcentrifuge tube and dried in a vacuum concentrator. The dried residue was treated with methanol/water/formic acid (50/50/0.1, all by volume) then vigorously mixed and centrifuged as described above. […] The effluent from the column was passed through an electrospray ion source (capillary voltage 42V, capillary temperature 275° C., sheath gas flow 15 L min^−1, spray voltage 5 kV, and −15 kV conversion dynode with −1.2 k V multipliers) connected to a linear ion trap mass spectrometer (Thermo LTQ) scanning from m/z 95-1000 in the positive ion mode. Spectra were recorded and analyzed with instrument-manufacturer supplied software. Confirmation of proposed elemental compositions was achieved using the same chromatography and ion source configuration with the spectra recorded by scanning on an orbitrap mass spectrometer (Thermo LTQ XL).

[3] = expressed in E. coli C41-pLys, grown with two tauro- (TCA, TCDCA) or glyco- (GCA, GCDCA) bile acids

| Molecule | bile salt hydrolase (deconjugation) activity [1, 3] | further results |
| --- | --- | --- |
| B1 | deconjugates both glyco- and tauro-conjugates |  |
| B2 |  | dehydrogenation of CA ([2]; grown in CA): removed the mass equivalent of two hydrogens from CA; dehydrogenation of CDCA ([2]; grown in CDCA): Background transformation by E. coli prevented clear evidence of CDCA dehydrogenation; dehydrogenation of DCA ([2]; grown in DCA): did not act on DCA |
| B3 | moderate activity on TCDCA |  |
| B4 | tauro-specific |  |
| B5 | activity on TCDCA and GCDCA | bile salt hydrolase (deconjugation) activity ([1]; expressed in E. coli, presented with the combined four bile acids): blunted |
